How the values were obtained:
primary CLL cells = experiment: Apoptosis in freshly isolated CLL cells after depsipeptide; assay type: cell-based, human; details: depsipeptide 10 nM 16 h, then 6 h ligand or antibody, FIG. 2C
Procedure: After exposure of the cells for 30 min, DISC complexes were isolated and analyzed for the indicated proteins by Western blotting. To provide an unstimulated receptor control (u/s), biotinylated wt or mutant TRAIL was added to lysate from untreated cells. C: Freshly isolated cells from patients with CLL were incubated for 16 h either alone or in the presence of depsipeptide (10 nM). […] The different symbols used indicate data from six individual patients and the solid line indicates the Mean.
(§1) Ramos, an Epstein-Barr virus-negative Burkitt's lymphoma cell line, and Jurkat T cells (clone E6-1) were cultured as described (MacFarlane et al (2005 Cell Death and Differentiation vol 12 pages 773-782)). Blood samples were obtained from CLL patients, with patient consent and local ethical committee approval and CLL cells purified as described (MacFarlane et al (2002 Oncogene 21, 6809-6818). Cells were incubated for 16 h with depsipeptide (10 nM), provided by Dr. E. Sausville (NCI, USA). Cells were then cultured for a further 6 h with either HGSETR1 or HGS-ETR2, agonistic mAbs to TRAIL-R1 or -R2, respectively (Human Genome Sciences, Rockville, Md.), His-TRAIL-LE (a recombinant TRAIL with low endotoxin—Alexis Corporation, Nottingham, UK), His-TRAIL, a similar form of human recombinant TRAIL (MacFarlane et al (1997 J Biol Chem 272, 25417-25420)) but not further purified to reduce endotoxin levels or a mutant form of His-TRAIL as described (MacFarlane et al., 2005 ibid.). Cell lines were also pre-incubated for 30 min with a TRAIL-R1 blocking Ab and a TRAIL-R2 neutralizing Ab from Alexis and R&D systems, respectively, prior to exposure to TRAIL. Freshly isolated cells from patients with MCL were isolated, purified and incubated with different forms of TRAIL as described above for CLL cells. Samples were either analyzed immediately for apoptosis or stored at −80° C. for subsequent Western blotting. Other methods and reagents were as described (Inoue (2004 Cell Death Differ 11 Suppl 2, S193-206); MacFarlane et al., 2005 ibid).
(§2) Apoptosis was quantified by phosphatidylserine (PS) externalization in the presence of propidium iodide as described (MacFarlane et al., 2002 ibid.). Samples for Western blot analysis were prepared and caspase processing detected as described (Inoue et al., 2004 ibid.; MacFarlane et al., 2005 ibid.).

Ramos cells [1] = experiment: Caspase-8 and -3 processing by Western blot in Ramos cells; assay type: cell-based; details: FIG. 1D
Procedure: (§3) Cells were also exposed to HGS-ETR1 or HGSETR2 (1 μg ml^−1). C: Ramos or Jurkat cells were pre-incubated for 30 min either alone or with TRAIL-R1 blocking Ab or TRAIL-R2 neutralizing Ab (5 μg ml^−1). […] D: Ramos and Jurkat cells were exposed to wt TRAIL or TRAIL mutants as described above and processing of caspase-3 and -8 determined by Western blot analysis. The asterisk indicates a non-specific band. The lower panel of the blot for detection of the caspase-8 p18 subunit was exposed for twice as long as the upper panel. Apoptosis was assessed by phosphatidylserine externalization and results expressed as the Means±SEM of at least 3 separate determinations.
as §2
To confirm that the mutants were inducing apoptosis, we examined their effects on the processing of caspase-8, the apical caspase in death receptor-induced apoptosis and caspase-3, an effector caspase.

primary MCL cells = experiment: Apoptosis in freshly isolated primary MCL cells with or without depsipeptide pre-treatment; assay type: cell-based, human; details: pre-treatment 16 h with depsipeptide (5 nM), depsipeptide alone 35.4±5%
Procedure: Cell lines were also pre-incubated for 30 min with a TRAIL-R1 blocking Ab and a TRAIL-R2 neutralizing Ab from Alexis and R&D systems, respectively, prior to exposure to TRAIL. Freshly isolated cells from patients with MCL were isolated, purified and incubated with different forms of TRAIL as described above for CLL cells. Samples were either analyzed immediately for apoptosis or stored at −80° C. for subsequent Western blotting. Other methods and reagents were as described (Inoue (2004 Cell Death Differ 11 Suppl 2, S193-206); MacFarlane et al., 2005 ibid).
as §2
We also obtained three samples from patients with mantle cell lymphoma (MCL), an incurable and aggressive disease that accounts for ˜6% of all non-Hodgkin's lymphoma. There are no standard treatments for MCL and the prognosis is very poor particularly for the blastoid variant. MCL cells were isolated and exposed to the different forms of TRAIL after pre-treatment for 16 h with depsipeptide (5 nM).

Ramos cells [2] = experiment: Apoptosis by phosphatidylserine (PS) externalization in Ramos cells; assay type: cell-based; details: for ability to induce apoptosis in Ramos cells (in words): PS externalization, compared with wt TRAIL
Procedure: as §3, §1, §2
Ramos and Jurkat T cells (clone E6-1) were cultured as described (MacFarlane et al, 2005 ibid.). The breast tumour cell line, MCF-7 (clone F43) was cultured as described previously (MacFarlane et al., 2000 J. Cell Biol. 148, 1239-1254). Cells were cultured for either 4 h (Ramos and Jurkat) or 6 h (MCF-7) with His-TRAIL (MacFarlane et al, 1997 J Biol Chem 272, 25417-25420), HGS-ETR1 or HGS-ETR2 (Human Genome Sciences), or a mutant form of His-TRAIL (MacFarlane et al, 2005 ibid.). Samples were analyzed for apoptosis, Western blotting, or TRAIL DISC activation as described (MacFarlane et al, 2005 ibid.; MacFarlane et al. 2002 Oncogene 21, 6809-6818). Mutants of His-TRAIL (residues 95-281) were generated using the Quik-Change site-directed mutagenesis kit (Stratagene, Calif.), confirmed by DNA sequencing, expressed in E. coli and purified as described (MacFarlane et al, 1997 ibid.). For siRNA targeting of TRAIL-R1/-R2, MCF-7 cells were seeded into six-well plates immediately prior to effectene-mediated RNAi transfection with either a negative control siRNA (30 nM, Ambion, #4611), or preannealed siRNA oligonucleotides for TRAIL-R1 or TRAIL-R2 (30 nM, Ambion), with the sequence and validity described (Ren et al, 2004 Mol. Biol. Cell vol 15 pp 5064-5074). After 40 h of transfection the cells were collected and total TRAIL-R1 or TRAIL-R2 levels assessed. […]

Row | Molecule | sensitization of CLL cells to induced apoptosis by depsipeptide (primary CLL cells) | processing of caspase-8 and caspase-3 (Ramos cells [1]) | apoptosis, ligand or antibody after depsipeptide pre-treatment (primary MCL cells) [%] | ability to induce apoptosis in Ramos cells (in words) (Ramos cells [2]) | inhibition of ligand-induced apoptosis by receptor blocking antibodies (Ramos cells [2]; 30 min pre-incubation with TRAIL-R1 blocking Ab or TRAIL-R2 neutralizing Ab (5 μg ml^−1)) | concentration-response of apoptosis compared with wt TRAIL (Ramos cells [2]; 4 h, FIG. 1B) | % PS+ cells, Ramos (Ramos cells [2]; 4 h exposure, 500 ng ml^−, Mean ± SEM of at least three determinations) [%]
1 | HGS-ETR2 (antibody, INN chains, looked up, V domains shown) VH: EVQLVQSGGGVERPGGSLRLSCAASGFTFDDYGMSWVRQAPGKGLEWVSGINWNGGSTGYADSVKGRVTISRDNAKNSLYLQMNSLRAEDTAVYYCAKILGAGRGWYFDLWGKGTTVTVSS VL: SSELTQDPAVSVALGQTVRITCQGDSLRSYYASWYQQKPGQAPVLVIYGKNNRPSGIPDRFSGSSSGNTASLTITGAQAEDEADYYCNSRDSSGNHVVFGGGTKLTVL | not | not | 38.3±4.3 | not in Ramos cells | – | – | –
2 | TRAIL.R1-5: 6His TRAIL 95-281 with 193Ser, 199Val, 201Arg, 213Trp and 215Asp (protein, biotin (site not stated) in the DISC analysis only; not biotinylated in the apoptosis assays, 6His TRAIL 95-281 with 193Ser, 199Val, 201Arg, 213Trp and 215Asp) TSEETISTVQEKQQNISPLVRERGPQRVAAHITGTRGRSNTLSSPNSKNEKALGRKINSWESSRSGHSFLSNLHLRNGELVIHEKGFYYIYSQTYFRFSEEIKEVTRNDKQMVQYIYKWTDYPDPILLMKSARNSCWSKDAEYGLYSIYQGGIFELKENDRIFVSVTNEHLIDMDHEASFFGAFLVG | sensitized CLL cells | induced the processing | 54.3±9.1 | retained most of the activity of wt TRAIL | blocking antibody specific to TRAIL-R1 but not to TRAIL-R2 to inhibit apoptosis | very similar concentration-response to wt TRAIL | 35.9 ± 6.4

Reference: patent US20090325867A1, “RECEPTOR-SPECIFIC TUMOUR NECROSIS FACTOR-RELATED APOPTOSIS-INDUCING LIGAND (TRAIL) VARIANTS” (MEDICAL RESEARCH COUNCIL, priority 2005, published 2009)
